The record followed here is publication PMC3679732, “Cloning and characterization of bifunctional enzyme farnesyl diphosphate/geranylgeranyl diphosphate synthase from Plasmodium falciparum” (Malaria Journal, 2013).

As usually defined, the Km is the concentration of substrate that gives half-maximal velocity. One may read the Vmax as the top rate of the reaction or transport when substrate is in excess.

What all share (test): purified protein
Common to all, as to assay type: biochemical, Plasmodium falciparum

Substrate in data set [1]: CC(C)=CCOP(=O)(O)OP(=O)(O)O
Particulars: Mg2+ ([…] MgCl2 in assay) allylic substrate; DMAPP, GPP, and FPP all compete for binding to the free enzyme active site.

Substrate in data set [2]: CC(C)=CCC/C(C)=C/COP(=O)(O)OP(=O)(O)O
The settings on record: Mg2+ ([…] MgCl2 in assay) allylic substrate; DMAPP, GPP, and FPP all compete for binding to the free enzyme active site.

Substrate in data set [3]: CC(C)=CCC/C(C)=C/CC/C(C)=C/CO[P@@](=O)(O)OP(=O)(O)O
The settings on record: Mg2+ ([…] MgCl2 in assay) allylic substrate; DMAPP, GPP, and FPP all compete for binding to the free enzyme active site.

Substrate in data set [4]: C=C(C)CCO[P@@](=O)(O)OP(=O)(O)O
The settings on record: Mg2+ ([…] MgCl2 in assay) second substrate.

B1: farnesyl diphosphate/geranylgeranyl diphosphate synthase (rPfFPPS) (Plasmodium falciparum 3D7) (protein)
chain: MENEQNNQDSENGLDYFRSMYDRYRDVFINHINDYVLEDDIKIIISKYYKLLFDYNCLGGKNNRGILVILIYEYVKNRDINCNEWEKVACIAWCIEILQASFLVADDIMDKGETRRNKHCWYLLKDVEIKNAVNDVFLLYNAIYKLLDVYLRNDNCYLDLITSFREATLKTIVGQHLDTNIFSDKYSHIDKDIDVNNINISQENKININMLNFKVYQNIIIHKTAYYSFFLPIVCGMQMGGISLDNLLYKKVENIAILMGEYFQVHDDYIDTFGDSKKTGKVGSDIQNNKLTWPLIKAFELCSQPEKEDIIRNYGKDNVTCIKFINDIYEHYNIRDHYVEYEKKQKMKILEAINQLHHEGIEYVLKYVMDILFTGA
notes: full length protein expressed as a GST fusion protein
Turning to B1, the Michaelis constant (Km) in the data set “purified protein [1]” was 68 ± 5 µM; in “purified protein [2]”, 7.8 ± 1.3 µM; in the data set “purified protein [3]”, 2.06 ± 0.4 µM; in the data set “purified protein [4]” it was 2.4 ± 0.3 µM. Moreover, the Vmax in “purified protein [1]” was 0.453 µmol/min/mg; in the data set “purified protein [2]”, 0.341 µmol/min/mg; in the data set “purified protein [3]”, 0.327 µmol/min/mg; in the data set “purified protein [4]”, 0.156 µmol/min/mg.
